Entries after “also recorded” stand apart in the source; their conditions may differ.
Columns and labels:
caspase-3 [1] = target: T1, caspase-3 (Homo sapiens, UniProt P42574); assay type: biochemical
T1 construct: purchased BioMol
T1 sequence (P42574 29-175 limits assumed): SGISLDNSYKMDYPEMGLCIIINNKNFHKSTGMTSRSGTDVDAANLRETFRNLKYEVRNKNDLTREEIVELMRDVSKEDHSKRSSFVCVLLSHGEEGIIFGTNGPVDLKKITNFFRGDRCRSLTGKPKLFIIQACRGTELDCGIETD
T1 sequence (P42574 176-277 limits assumed): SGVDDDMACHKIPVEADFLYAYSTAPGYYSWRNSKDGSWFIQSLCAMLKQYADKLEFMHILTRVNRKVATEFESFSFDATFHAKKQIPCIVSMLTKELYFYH

[2] = target: cyclic AMP-dependent protein kinase (Homo sapiens, UniProt P17612); conditions: cited from earlier work
[3] = target: cyclic AMP dependent protein kinase catalytic subunit (Homo sapiens, UniProt P17612); conditions: cited from earlier work
enterokinase = target: T2, enterokinase (Bos taurus, UniProt P98072); assay: Enterokinase assay with firefly luciferases having an internal enterokinase site; assay type: biochemical
T2 construct: purchased Invitrogen
T2 sequence (P98072 801-1035 limits assumed): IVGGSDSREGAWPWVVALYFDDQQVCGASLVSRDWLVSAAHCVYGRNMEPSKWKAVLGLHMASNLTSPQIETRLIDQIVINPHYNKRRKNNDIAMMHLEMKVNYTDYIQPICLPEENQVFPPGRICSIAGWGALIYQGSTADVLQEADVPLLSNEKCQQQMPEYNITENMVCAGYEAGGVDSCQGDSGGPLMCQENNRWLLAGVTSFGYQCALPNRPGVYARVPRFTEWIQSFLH

caspase-3 [4] = target: T1, caspase-3; assay: Caspase-3 activation of circularly permuted firefly luciferase having a caspase-3 site; assay type: biochemical; conditions: TnT rabbit reticulocyte lysate

Molecule: Ac-DEVD-CHO
- caspase-3 induced decrease of Cbg69DEVD luciferase activity in presence of caspase inhibitor (caspase-3 [1]): decrease in activity was not observed

Molecule: RRFS: Photinus pyralis luciferase, valine 217 mutated to arginine generating site RRFS (Sala-Newby et al.)
- decrease of activity when phosphorylated [2]: up to 80%

Molecule: LRRASLG
- reduction of activity on addition of kinase catalytic subunit [3]: 30%

B1: WT enzyme: parental (unmodified) firefly luciferase luc+ (protein)
chain: MEDAKNIKKGPAPFYPLEDGTAGEQLHKAMKRYALVPGTIAFTDAHIEVDITYAEYFEMSVRLAEAMKRYGLNTNHRIVVCSENSLQFFMPVLGALFIGVAVAPANDIYNERELLNSMGISQPTVVFVSKKGLQKILNVQKKLPIIQKIIIMDSKTDYQGFQSMYTFVTSHLPPGFNEYDFVPESFDRDKTIALIMNSSGSTGLPKGVALPHRTACVRFSHARDPIFGNQIIPDTAILSVVPFHHGFGMFTTLGYLICGFRVVLMYRFEEELFLRSLQDYKIQSALLVPTLFSFFAKSTLIDKYDLSNLHEIASGGAPLSKEVGEAVAKRFHLPGIRQGYGLTETTSAILITPEGDDKPGAVGKVVPFFEAKVVDLDTGKTLGVNQRGELCVRGPMIMSGYVNNPEATNALIDKDGWLHSGDIAYWDEDEHFFIVDRLKSLIKYKGYQVAPAELESILLQHPNIFDAGVAGLPDDDAGELPAAVVVLEHGKTMTEKEIVDYVASQVTTAKKLRGGVVFVDEVPKGLTGKLDARKIREILIKAKKGGKIAV
- effect of enterokinase on luciferase activity (enterokinase): no effect; also recorded: not affected; also recorded: not altered
- luminescence reading (Turner 20/20 luminometer) (enterokinase; 0 minutes, with 1 U EKMax): 2561
- luminescence reading (Turner 20/20 luminometer) (enterokinase; 0 minutes, without EKMax): 2517
- luminescence reading (Turner 20/20 luminometer) (enterokinase; 15 minutes, with 1 U EKMax): 2905
- luminescence reading (Turner 20/20 luminometer) (enterokinase; 15 minutes, without EKMax): 2855
- luminescence reading (Turner 20/20 luminometer) (enterokinase; 30 minutes, with 1 U EKMax): 3190
- luminescence reading (Turner 20/20 luminometer) (enterokinase; 30 minutes, without EKMax): 2987
- effect of caspase-3 on activity (caspase-3 [4]): not affected

— US9290745B2, “Luciferase biosensor” (PROMEGA CORPORATION, priority 2003, dated 2016)
